Test results taken from article PMC10297652, “Large-Scale Production of Anti-RNase A VHH Expressed in pyrG Auxotrophic Aspergillus oryzae” (Current Issues in Molecular Biology, 2023).

Biological target: T1, RNase A (Bos taurus (assumed; commercial RNase …, UniProt P61823)
T1 construct: RNase A (ribonuclease A), about 13.7 kDa, commercial; also called ribonuclease A; source: bought: Biofroxx (1263MG050)
Test: SPR; BIAcore T200, CM5 chip; Asp. VHH captured on flow cell 4; RNase A injected at 0, 2, 10, 50 nM, multi-cycle kinetics; HBS-EP+ pH 7.4; 25 °C; 1:1 binding model
Conditions: both partners purified

T1 sequence (P61823 27-150): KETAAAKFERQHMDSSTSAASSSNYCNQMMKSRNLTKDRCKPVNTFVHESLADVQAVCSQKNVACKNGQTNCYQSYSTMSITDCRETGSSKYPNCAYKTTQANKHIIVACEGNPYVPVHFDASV

B1: anti-RNase A VHH expressed in pyrG auxotrophic Aspergillus oryzae (VHH)
VHH: QVQLVESGGGLVQAGGSLRLSCAASGYAYTYIYMGWFRQAPGKEREGVAAMDSGGGGTLYADSVKGRFTISRDKGKNTVYLQMDSLKPEDTATYYCAAGGYELRDRTYGQWGQGTQVTVSS
notes: DNA codon-optimized; about 13 kDa; also called Asp; VHH; anti-ribonuclease A VHH; source: pyrG(-) A. oryzae RIB40, secreted into the culture medium, purified (Ni-NTA IMAC, PD-10 desalting, Superdex 200 SEC); not shown: 8xHis, C-terminal, kept
B1 was tested. Which Kd did it give?
Its Kd is 1.91 nM.
